For the experiment, the target named is T1, human CD3 epsilon on HPB-ALL cells (human, UniProt P07766 23-207).
T1 construct: whole, on cells; also called human CD3 epsilon positive T cell tumour line
The experiment can be described thus: FACS, median fluorescence intensity on HPB-ALL cells. A general note: Flow cytometry measures light scatter and fluorescence of single cells or particles in a stream.

Protocol: HPB-ALL cells (DSMZ, Braunschweig, Germany, Cat. No: ACC483) were used as CD3 positive cell line for FACS staining. […] After washing, cells were incubated with a 1/200 dilution of anti-Human Fc-PE (EBioscience, Vienna, Austria) for 45 min on ice. Cells were then washed again and resuspended in 200 ul FACS buffer.

B1: humanized OKT3 prototype antibody VH/VL (antibody, human IgG1, kappa, V domains shown)
VH: EVQLVESGGGLVQPGGSLRLSCAASGYTFTRYTIHWVRQAPGKGLEWVAYINPSRGYTRYADSVKGRFTISADTSKNTAYLQMNSLRAEDTAVYYCARYYDDHYCLDYWGQGTLVTVSS
VL: DIQMTQSPSSLSASVGDRVTITCRASSSVSYVAWYQQKPGKAPKLLIYDTSKLYSGVPSRFSGSRSGTDFTLTISSLQPEDFATYYCQQWSSNPPTFGQGTKVEIKR
B1: the binding result is listed as “no binding”.

The values above are taken from patent publication US20180355064A1 (GLENMARK PHARMACEUTICALS S A, published 2018).
